Results: publication PMC4596520

Experiments:
Assay in all cases: SPR
Details in all cases: read off a plot
[1] = molecular target: hexa-His-tagged recombinant soluble human Fcγ receptor I (UniProt P12314)
[2] = molecular target: hexa-His-tagged recombinant soluble human Fcγ receptor IIa, 134R (UniProt P12318)
[3] = molecular target: hexa-His-tagged recombinant soluble human Fcγ receptor IIIa, 158F (UniProt P08637)
Chain of UniProt P08637 (P08637 17-208): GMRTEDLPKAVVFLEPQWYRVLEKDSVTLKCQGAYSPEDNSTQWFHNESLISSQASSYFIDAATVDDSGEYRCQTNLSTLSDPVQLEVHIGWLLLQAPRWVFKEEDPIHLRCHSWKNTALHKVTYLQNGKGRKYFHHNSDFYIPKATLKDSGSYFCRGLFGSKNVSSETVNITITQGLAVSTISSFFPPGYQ

Chain of UniProt P12314 (P12314 16-292): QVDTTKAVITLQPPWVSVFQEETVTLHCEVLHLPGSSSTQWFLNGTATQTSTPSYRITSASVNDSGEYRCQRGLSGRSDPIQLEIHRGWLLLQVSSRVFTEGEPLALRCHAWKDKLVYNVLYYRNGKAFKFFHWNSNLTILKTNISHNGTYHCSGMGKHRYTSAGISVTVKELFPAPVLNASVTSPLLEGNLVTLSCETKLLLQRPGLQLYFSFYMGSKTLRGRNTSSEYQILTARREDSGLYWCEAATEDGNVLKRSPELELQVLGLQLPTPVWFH
Chain of UniProt P12318 (P12318 34-217 H167R): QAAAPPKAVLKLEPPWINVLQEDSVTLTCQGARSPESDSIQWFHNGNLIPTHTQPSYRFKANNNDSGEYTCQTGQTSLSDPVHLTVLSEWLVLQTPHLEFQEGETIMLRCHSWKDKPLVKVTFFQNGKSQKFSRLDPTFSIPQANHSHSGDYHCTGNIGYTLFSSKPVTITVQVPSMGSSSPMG

With “fucosylated anti-CD20 chimeric IgG1 rituximab with a wild-type Fc region Y296L” the Kd ([1]; parent: est. 11) was 11 ×10^-8 M and the Kd ([2]; parent: est. 18) was 9 ×10^-7 M.
In the case of “nonfucosylated anti-CD20 chimeric IgG1 rituximab with a wild-type Fc region Y296V”, the Kd ([3]; parent: est. 5.0) is reported as 9 ×10^-7 M, the Kd ([1]; parent: est. 2.3) is reported as 3 ×10^-8 M and the Kd ([2]; parent: est. 12) is reported as 11 ×10^-7 M.
In the case of “fucosylated anti-CD20 chimeric IgG1 rituximab with a wild-type Fc region Y296Q”, the Kd ([3]; parent: est. 17) is reported as 27 ×10^-7 M, the Kd ([1]; parent: est. 11) is reported as 9.6 ×10^-8 M and the Kd ([2]; parent: est. 18) is reported as 11 ×10^-7 M.
“fucosylated anti-CD20 chimeric IgG1 rituximab with a wild-type Fc region Y296P” was tested, and the Kd ([1]; parent: est. 11) was 18 ×10^-8 M.
“nonfucosylated anti-CD20 chimeric IgG1 rituximab with a wild-type Fc region Y296E” was tested, and the Kd ([3]; parent: est. 5.0) was 9 ×10^-7 M and the Kd ([1]; parent: est. 2.3) was 2.7 ×10^-8 M.
For “nonfucosylated anti-CD20 chimeric IgG1 rituximab with a wild-type Fc region Y296R”, the Kd ([1]; parent: est. 2.3) was 3.3 ×10^-8 M and the Kd ([2]; parent: est. 12) was 10 ×10^-7 M.
In the case of “nonfucosylated anti-CD20 chimeric IgG1 rituximab with a wild-type Fc region Y296Q”, the Kd ([3]; parent: est. 5.0) is reported as 10 ×10^-7 M, the Kd ([1]; parent: est. 2.3) is reported as 3.2 ×10^-8 M and the Kd ([2]; parent: est. 12) is reported as 11 ×10^-7 M.
“nonfucosylated anti-CD20 chimeric IgG1 rituximab with a wild-type Fc region Y296C” was tested, and the Kd ([3]; parent: est. 5.0) was 6.5 ×10^-7 M, the Kd ([1]; parent: est. 2.3) was 3.3 ×10^-8 M and the Kd ([2]; parent: est. 12) was 8 ×10^-7 M.
With “fucosylated anti-CD20 chimeric IgG1 rituximab with a wild-type Fc region Y296S” the Kd ([3]; parent: est. 17) was 30 ×10^-7 M, the Kd ([1]; parent: est. 11) was 10 ×10^-8 M and the Kd ([2]; parent: est. 18) was 13 ×10^-7 M.
In the case of “nonfucosylated anti-CD20 chimeric IgG1 rituximab with a wild-type Fc region Y296F”, the Kd ([3]; parent: est. 5.0) is reported as 6 ×10^-7 M, the Kd ([1]; parent: est. 2.3) is reported as 2.6 ×10^-8 M and the Kd ([2]; parent: est. 12) is reported as 9.8 ×10^-7 M.
“nonfucosylated anti-CD20 chimeric IgG1 rituximab with a wild-type Fc region Y296P” was tested, and the Kd ([1]; parent: est. 2.3) was 7.4 ×10^-8 M.
With “fucosylated anti-CD20 chimeric IgG1 rituximab with a wild-type Fc region Y296E” the Kd ([3]; parent: est. 17) was 20 ×10^-7 M, the Kd ([1]; parent: est. 11) was 12 ×10^-8 M and the Kd ([2]; parent: est. 18) was 11 ×10^-7 M.
For “nonfucosylated anti-CD20 chimeric IgG1 rituximab with a wild-type Fc region Y296I”, the Kd ([3]; parent: est. 5.0) was 9.5 ×10^-7 M, the Kd ([1]; parent: est. 2.3) was 3.2 ×10^-8 M and the Kd ([2]; parent: est. 12) was 10 ×10^-7 M.
In the case of “fucosylated anti-CD20 chimeric IgG1 rituximab with a wild-type Fc region Y296N”, the Kd ([1]; parent: est. 11) is reported as 10 ×10^-8 M and the Kd ([2]; parent: est. 18) is reported as 12 ×10^-7 M.
With “fucosylated anti-CD20 chimeric IgG1 rituximab with a wild-type Fc region Y296M” the Kd ([1]; parent: est. 11) was 10 ×10^-8 M and the Kd ([2]; parent: est. 18) was 13 ×10^-7 M.
In the case of “nonfucosylated anti-CD20 chimeric IgG1 rituximab with a wild-type Fc region Y296N”, the Kd ([3]; parent: est. 5.0) is reported as 8 ×10^-7 M, the Kd ([1]; parent: est. 2.3) is reported as 3.2 ×10^-8 M and the Kd ([2]; parent: est. 12) is reported as 11 ×10^-7 M.
For “fucosylated anti-CD20 chimeric IgG1 rituximab with a wild-type Fc region Y296H”, the Kd ([1]; parent: est. 11) was 11 ×10^-8 M and the Kd ([2]; parent: est. 18) was 11 ×10^-7 M.
“nonfucosylated anti-CD20 chimeric IgG1 rituximab with a wild-type Fc region Y296D” was tested, and the Kd ([3]; parent: est. 5.0) was 6 ×10^-7 M, the Kd ([1]; parent: est. 2.3) was 2.7 ×10^-8 M and the Kd ([2]; parent: est. 12) was 9.5 ×10^-7 M.
For “nonfucosylated anti-CD20 chimeric IgG1 rituximab with a wild-type Fc region Y296T”, the Kd ([3]; parent: est. 5.0) was 10 ×10^-7 M, the Kd ([1]; parent: est. 2.3) was 3 ×10^-8 M and the Kd ([2]; parent: est. 12) was 9.6 ×10^-7 M.
For “fucosylated anti-CD20 chimeric IgG1 rituximab with a wild-type Fc region Y296G”, the Kd ([3]; parent: est. 17) was 56 ×10^-7 M, the Kd ([1]; parent: est. 11) was 14 ×10^-8 M and the Kd ([2]; parent: est. 18) was 13 ×10^-7 M.
With “fucosylated anti-CD20 chimeric IgG1 rituximab with a wild-type Fc region Y296F” the Kd ([3]; parent: est. 17) was 21 ×10^-7 M, the Kd ([1]; parent: est. 11) was 11 ×10^-8 M and the Kd ([2]; parent: est. 18) was 9.5 ×10^-7 M.
With “nonfucosylated anti-CD20 chimeric IgG1 rituximab with a wild-type Fc region Y296S” the Kd ([3]; parent: est. 5.0) was 11 ×10^-7 M, the Kd ([1]; parent: est. 2.3) was 3.4 ×10^-8 M and the Kd ([2]; parent: est. 12) was 9.2 ×10^-7 M.
“nonfucosylated anti-CD20 chimeric IgG1 rituximab with a wild-type Fc region Y296M” was tested, and the Kd ([3]; parent: est. 5.0) was 9.5 ×10^-7 M, the Kd ([1]; parent: est. 2.3) was 3.2 ×10^-8 M and the Kd ([2]; parent: est. 12) was 11 ×10^-7 M.
For “fucosylated anti-CD20 chimeric IgG1 rituximab with a wild-type Fc region Y296C”, the Kd ([3]; parent: est. 17) was 17 ×10^-7 M, the Kd ([1]; parent: est. 11) was 9.8 ×10^-8 M and the Kd ([2]; parent: est. 18) was 10 ×10^-7 M.
For “fucosylated anti-CD20 chimeric IgG1 rituximab with a wild-type Fc region Y296V”, the Kd ([1]; parent: est. 11) was 10 ×10^-8 M and the Kd ([2]; parent: est. 18) was 14 ×10^-7 M.
“fucosylated anti-CD20 chimeric IgG1 rituximab with a wild-type Fc region Y296D” was tested, and the Kd ([3]; parent: est. 17) was 17 ×10^-7 M, the Kd ([1]; parent: est. 11) was 11 ×10^-8 M and the Kd ([2]; parent: est. 18) was 12 ×10^-7 M.
For “fucosylated anti-CD20 chimeric IgG1 rituximab with a wild-type Fc region Y296R”, the Kd ([3]; parent: est. 17) was 41 ×10^-7 M, the Kd ([1]; parent: est. 11) was 10 ×10^-8 M and the Kd ([2]; parent: est. 18) was 12 ×10^-7 M.
With “fucosylated anti-CD20 chimeric IgG1 rituximab with a wild-type Fc region Y296I” the Kd ([1]; parent: est. 11) was 10 ×10^-8 M and the Kd ([2]; parent: est. 18) was 12 ×10^-7 M.
With “nonfucosylated anti-CD20 chimeric IgG1 rituximab with a wild-type Fc region Y296H” the Kd ([3]; parent: est. 5.0) was 6.5 ×10^-7 M, the Kd ([1]; parent: est. 2.3) was 3 ×10^-8 M and the Kd ([2]; parent: est. 12) was 7.5 ×10^-7 M.
“fucosylated anti-CD20 chimeric IgG1 rituximab with a wild-type Fc region Y296T” was tested, and the Kd ([3]; parent: est. 17) was 32 ×10^-7 M, the Kd ([1]; parent: est. 11) was 12 ×10^-8 M and the Kd ([2]; parent: est. 18) was 12 ×10^-7 M.
For “nonfucosylated anti-CD20 chimeric IgG1 rituximab with a wild-type Fc region Y296L”, the Kd ([3]; parent: est. 5.0) was 10 ×10^-7 M, the Kd ([1]; parent: est. 2.3) was 2.8 ×10^-8 M and the Kd ([2]; parent: est. 12) was 11 ×10^-7 M.
